# Experimental data from doi:10.1101/2021.03.12.435194, “Antibody evasion by the Brazilian P.1 strain of SARS-CoV-2” (bioRxiv, 2021).
# B1: EY6A Fab (Fab, V domains shown)
# VH: EVQLVESGGGVVQPGRSLRLSCAASAFTFSSYDMHWVRQAPGKGLEWVAVISYDGSNKYYADSVKGRFTISRDNSKNTLYLQMNSLRAEDTAVYYCAKDGGKLWVYYFDYWGQGTLVTVSS
# VL: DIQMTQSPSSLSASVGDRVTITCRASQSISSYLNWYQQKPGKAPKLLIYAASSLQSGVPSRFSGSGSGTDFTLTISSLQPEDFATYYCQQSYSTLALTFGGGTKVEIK
# Target: T1, WT RBD (Wuhan) (SARS-CoV-2, Wuhan (RBD identical in …, UniProt P0DTC2))
# T1 construct: also called Wuhan RBD; native RBD
# Assay: crystal structure
# Conditions: both partners purified
binder,measurement,value
B1,binding result,binds
